The text below walks through data of publication PMC3551606.

The first experiment deals with Drosophila cathepsin B (Drosophila).
Substance “Drosophila melanogaster crammer, wild type (natural protein)” had a CTSB activity % (residual activity on ZFR-AMC with 3 µM crammer variant, 75 nM CTSB, pH 5.0, 20°C) of 14.7%.
Same read-out and setting: the value for crammer F16A (natural protein) was 34.6%; that for crammer F46A (natural protein) was 41%; that for crammer W9A (natural protein) was 87.8%.
Still for that read-out and setting: under crammer W53A (natural protein) stands 85.2%.
The same measure, in the same setting: under crammer Y12A (natural protein) stands 63%.
In turn, crammer Y20A (natural protein) displayed a CTSB activity % (residual activity on ZFR-AMC with 3 µM crammer variant, 75 nM CTSB, pH 5.0, 20°C) of 47.8%.
Same read-out and setting: under crammer Y32A (natural protein) stands 67.6%.

The target is the same in a further experiment. The source holds these as a separate data set.
crammer D6A (natural protein) came in with a CTSB activity % (residual activity on ZFR-AMC with 3 µM crammer variant, 75 nM CTSB, pH 5.0, 20°C) of 21.1%.
Still for that read-out and setting: under crammer E8A (natural protein) stands 77.7%; under crammer E24A (natural protein), 19%.
Still for that read-out and setting: under crammer E67A (natural protein) stands 54.1%.
Still for that read-out and setting: the value for crammer K36A (natural protein) was 29%; that for crammer R28A (natural protein) was 89%; that for crammer R29A (natural protein) was 64%.

The next experiment has the same target. This is another data set of the same source.
Substance crammer F16A (natural protein) displayed a reduction of CTSB activity at 3 µM crammer variant (text's number; differs from 100 minus the table's cell) of 64%.
